PMC5686206

Substrate: T1, OCP lacking the NTE comprising the first 20 amino acids (ΔNTE), 6xHis-tagged (Synechocystis sp. PCC 6803) (UniProt P74102)
T1 sequence: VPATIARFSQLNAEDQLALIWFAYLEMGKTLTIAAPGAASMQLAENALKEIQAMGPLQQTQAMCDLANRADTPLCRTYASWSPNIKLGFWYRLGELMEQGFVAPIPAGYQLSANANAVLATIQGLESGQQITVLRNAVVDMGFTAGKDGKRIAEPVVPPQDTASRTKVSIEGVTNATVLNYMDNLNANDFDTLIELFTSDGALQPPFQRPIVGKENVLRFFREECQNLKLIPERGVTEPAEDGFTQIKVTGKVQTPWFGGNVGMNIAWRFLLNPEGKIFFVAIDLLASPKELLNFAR

B1: Fluorescence Recovery Protein (FRP), 6xHis-tagged (natural protein)
chain: MLQTAEAPWSQAETQSAHALFRKAYQRELDGLLATVQAQASQITQIDDLWKLHDFLSAKRHEIDGKYDDRQSVIIFVFAQLLKEGLVQAEELTFLAADKQSKIKALARL
amplitude a3 (yield) of the slow component (C3) of flash-induced absorption transients at 550 nm, ΔNTE OCP + FRP (FRP to ΔNTE OCP ratio 1.6), 36 °C: 76%
time constant t1 of the fast component (C1) of flash-induced absorption transients at 550 nm, ΔNTE OCP + FRP (FRP to ΔNTE OCP ratio 1.6), 36 °C: 70.4 µs
